Data set [1] relates to ZFR3 (Zinc Finger 3-HP1a-KRAB) (synthetic). Briefly: cell_activity. The note with it: N2A cells, transfection, qPCR; indirect (repression); text labels ZFR3 as SEQ 11 but the listing gives Zinc Finger 3-HP1a-KRAB as SEQ 10. A general note: Quantitative PCR measures a nucleic acid by following its amplification.
The test system of data set [2] is ZFR11 (Zinc Finger 11-HP1a-KRAB) (synthetic). Briefly: cell_activity. The note with it: N2A cells, transfection, qPCR; indirect (repression); text labels ZFR11 as SEQ 10 but the listing gives Zinc Finger 11-HP1a-KRAB as SEQ 11.
Chain of ZFR11 (Zinc Finger 11-HP1a-KRAB) (synthetic) (chain, as listed by the source): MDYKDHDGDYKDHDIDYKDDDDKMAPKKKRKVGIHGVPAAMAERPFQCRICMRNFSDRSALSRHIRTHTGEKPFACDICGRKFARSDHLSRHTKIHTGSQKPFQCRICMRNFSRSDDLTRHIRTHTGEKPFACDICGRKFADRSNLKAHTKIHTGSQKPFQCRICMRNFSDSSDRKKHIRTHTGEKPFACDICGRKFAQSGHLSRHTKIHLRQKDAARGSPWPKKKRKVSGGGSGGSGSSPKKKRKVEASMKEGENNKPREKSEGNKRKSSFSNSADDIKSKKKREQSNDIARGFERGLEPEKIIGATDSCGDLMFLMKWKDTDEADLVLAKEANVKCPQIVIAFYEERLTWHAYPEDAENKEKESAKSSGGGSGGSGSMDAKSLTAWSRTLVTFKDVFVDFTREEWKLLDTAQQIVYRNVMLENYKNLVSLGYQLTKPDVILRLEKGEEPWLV

Chain of ZFR3 (Zinc Finger 3-HP1a-KRAB) (synthetic) (chain, as listed by the source): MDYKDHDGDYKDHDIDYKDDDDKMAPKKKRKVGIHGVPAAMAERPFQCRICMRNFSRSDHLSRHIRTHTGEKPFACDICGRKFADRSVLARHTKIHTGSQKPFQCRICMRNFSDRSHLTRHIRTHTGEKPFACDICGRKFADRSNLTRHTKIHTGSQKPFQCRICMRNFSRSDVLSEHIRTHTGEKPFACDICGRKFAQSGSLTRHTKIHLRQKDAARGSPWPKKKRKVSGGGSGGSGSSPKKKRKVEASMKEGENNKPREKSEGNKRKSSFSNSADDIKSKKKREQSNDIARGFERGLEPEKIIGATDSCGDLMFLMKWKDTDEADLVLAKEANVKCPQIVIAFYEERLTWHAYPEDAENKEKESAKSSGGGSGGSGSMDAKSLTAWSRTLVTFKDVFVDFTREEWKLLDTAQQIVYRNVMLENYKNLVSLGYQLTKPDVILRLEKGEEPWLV

As to “mouse Myd88 promoter target region (20 nt target of each ZF not individually printed)”, the relative Myd88 expression (fold Myd88 expression) turned out to be 0.22 in data set [1] and 0.21 in data set [2].
